Laboratory results published in patent publication US8637237.

Target: mouse RXRα (mRXRα) (mouse) (UniProt P28700)
Assay: cell-based or functional assay

Work on “GGF (human glucocorticoid receptor amino terminus and DBD linked to the carboxyl terminus (LBD) of FXR) (from UniProt P04150 1-509; Q62735 188-469)” yielded a GGF-dependent transcriptional induction by farnesol (40 µM), FIG. 16D of 2 fold.
